B1: SC06-089 (scFv)
scFv: EVQLVETGGGLVQPGGSLRLSCAASGFTFSSYSMNWVRQAPGKGLEWVSFISSSSSTIYYADSVKGRFTIARDNAKNSLYLQMNSLRDEDTAVYYCARPVGTGISLFHAFDIWGQGTMVTVSSGTGGSGGTGSGTGGSTQSVLTQPPSVSVAPGQTARITCGGNNIGSKYVHWYQQKPGQAPVLVVYDDSDRPSGIPERFSGSNSGNTATLTISRVEAGDEADFYCQVWDGSSDPVVFGGGTKLTVL
notes: Vl 140-247); also called single-chain phage antibody SC06-089
B2: SC06-077 (scFv)
scFv: QVQLVQSGAEVKKPGSSVKVSCKASGGTFSSYAISWVRQAPGQGLEWMGGIIPIFGTANYAQKFQGRVTITADESTSTAYMELSSLRSEDTAVYYCAREGGVGPAFDIWGQGTMVTVSSGTGGSGGTGSGTGGSTDIQMTQSPDSLAVSLGERATINCKSSQSVLHNSNNKNYLAWYQQKPGQPPKLLIYWASTRESGVPDRFSGSGSGTDFTLTISSLQAEDVAVYYCQQYYGSPYTFGQGTKLEIK
notes: Vl 136-248); also called single-chain phage antibody SC06-077
B3: SC06-078 (scFv)
scFv: EVQLVESGAEVKKPGSSVKVSCKASGGTFSSYAISWVRQAPGQGLEWMGGIIPIFGTANYAQKFQGKVTITADESTSTAYMELSSLRSEDTAVYYCARLSPRYYGMDVWGQGTTVTVSSGTGGSGGTGSGTGGSTQSALTQPRSVSGSPGQSVTISCTGTSSDVGGYNYVSWYQQHPGKAPKLMIYGGSERPSGVSNRFSGSKSGNTASLTISGVQAEDEADYYCSSYTSSGTLLFGGGTQLTVL
notes: Vl 136-245); also called single-chain phage antibody SC06-078
B4: SC06-050 (scFv)
scFv: EVQLVESGPEVKKPGASVKVSCEASGYNLDNYGITWVRQAPGQGLEWLGWISAYNAKTEYGQRLQGRVTMTTDTATSTAYLELRSLRSDDTAVYYCARVLGYRGGWYDEGDAFDVWGQGTMVTVSSGTGGSGGTGSGTGGSTDIQLTQSPSFLSASVGDRVTITCRASQGIRSHLAWYQQKAGKAPKLLIYAASTLQSGVPSRFSGSGSGTEFTLTISSLQPDDFAAYYCQQLNTYPITFGQGTRLEIK
notes: Vl 143-249); also called single-chain phage antibody SC06-050
B5: SC06-092 (scFv)
scFv: EVQLVESGGGLVQPGRSLRLSCTGSGFTFGDYAMSWFRQAPGKGLEWVGFIRNKAYGGTAEYAASVKDRFIISRDDSKSIAYLQMNSLKTEDTAVYYCVRREYDTGWLDYWGQGTLVTVSSGTGGSGGTGSGTGGSTQSALTQPPSASGSPGQSVTISCTGTSSDVGGYNYVSWYQRHPGKAPKLMIYDVTDRPSGVSNRFSGSKSGNTASLTISGLQAEDEADYYCSSYTSSSTSAVFGGGTKLTVL
notes: Vl 138-248); also called single-chain phage antibody SC06-092
B6: SC06-079 (scFv)
scFv: EVQLVESGGGLVQPGGSLRLSCAASGFTFSSYAMSWVRQAPGKGLEWVSAISGTGGSAYYADSVKGRFTISRDNSKNTVYLQMNSLRAEDTAVYYCAKGHSSGTNWGQGTLVTVSSGTGGSGGTGSGTGGSTSYVLTQPPSASGTPGQRVTISCSGSSSNIGSNFVYWYQQLPGTAPKLLIYRNNQRPSGVPDRFSGSKSGTSASLAISGLRSEDEADYYCAAWDDSLSGVLFGGGTQLTVL
notes: Vl 133-242); also called single-chain phage antibody SC06-079
B7: SC06-198 (scFv)
scFv: QLQLQESGPGLVKPSETLSLTCAVSGYSITSGYYWGWVRQPPGKGLEWIGSIYHTGSTYYNPSLKSRVTISVDTSKNQFSLKLNSLTAADTAVYFCASQSPAFDFWGQGTMVTVSSGTGGSGGTGSGTGGSTQSVLTQPPSVSGAPGQRVTISCTGSSSNIGTGYDVHWYQQLPGTAPKLLIYGNNNRPSGVPDRFSGSKSGTSASLAITGLQAEDEADYYCATWDDSLNGWVFGGGTKLTVP
notes: Vl 133-243); also called single-chain phage antibody SC06-198
B8: SC06-191 (scFv)
scFv: EVQLVESGGGVVQPGRSLRLSCVASEFTFSNYGMHWVRQAPGKGLEWVAVIWYDGSNEDYADSVKGRFTISRDNSKNTVYLHMNSLRAEDTAVYFCTRGQYSSTWFLDYWGQGTLVTVSSGTGGSGGTGSGTGGSTDIQLTQSPSTLSASVGDRVTITCRASQSISSWLAWYQQKPGKAPKLLIYKASSLETGVPSRFSGSGSGTDFTLTISSLQPEDFATYYCQQANSFPLTFGGGTKVDIK
notes: Vl 137-243); also called single-chain phage antibody SC06-191
B9: SC06-241 (scFv)
scFv: EVQLVESGGGLVQPGRSLRLSCAASGFTFRSYAMYWVRQAPGKGLEWLALISHDASKMFYADSVKGRFTISRDNSKNTLSLQMNSLTIEDTAVYYCVRERTGYYGAYWGQGTLVTVSSGTGGSGGTGSGTGGSTDIQMTQSPSSLSASVGDRVTLTCRASQGIGTWLAWYQQKPGKAPKLLIYSASSLQSGVPSRFSGSGSGTDFTLSISNLQPEDFATYYCQQANSFPITFGQGTRLEIK
notes: Vl 135-241); also called single-chain phage antibody SC06-241
B10: SC05-157 (scFv)
scFv: EVQLVESGAEVKKPGESLKISCKGSGYSFTNYWIGWVRQMPGKGLEWMGIVYPGDSDTRYSPSFQGQVTISADKSISTAYLQWSSLKASDTAVYYCARRMAVAGSDAFDIWGQGTMVTVSSGTGGSGGTGSGTGGSTQAVLTQPSSASGTPGQTVTISCSGSTSNIGSHNVNWYQHLPGTAPKLLIYINNKRPSGVPDRFSGSKSGSSASLAISGLQSEDEADYYCAAWDDSLRRPVFGGGTQLTVL
notes: Vl 138-247); also called single-chain phage antibody SC05-157
B11: SC06-071 (scFv)
scFv: EVQLVESGGGVVQPGRSLRLSCAASGFTFSSYGMHWVRQAPGKGLEWVAMIWSDGSNKYYADSVKGRFTISRDNSKNTLYLQMNSLRVEDTAVYYCASNYGSGSYWGGFDYWGQGTLVTVSSGTGGSGGTGSGTGGSTQSALTQPASVSGSPGQSITISCTGTSSDVGGYNLVSWYQQHPGKAPKLMIYEGSKRPSGVSNRFFGSKSGDTASLTISGLQAEDEADYYCSSYTTSSTHVFGTGTKVTVL
notes: Vl 139-248); also called single-chain phage antibody SC06-071
B12: SC06-087 (scFv)
scFv: EVQLVESGGGLVKPGGSLRLSCAASGFTFSSNSMNWVRQAPGKGLEWVSFISSSSTYIYYADSVKGRFTISRDNAKNSLYLQMNSLRAEDTAVYYCARESAAGISYDAFDIWGQGTMVTVSSGTGGSGGTGSGTGGSTQSALTQPASVSGSPGQSITISCTGTSSDVGGYKYVSWYQQHPGKAPKLMIYEVSNRPSGVSNRFSGSKSGSTASLTISGLQAEDEADYYCSSYTSSSTLGVFGTGTKVTVL
notes: Vl 139-249); also called single-chain phage antibody SC06-087
B13: SC06-195 (scFv, V domains shown)
VH: EVQLVESGGGVVQPGRSLRLSCAASGFTFSSYGMHWVRQAPGKGLEWVAVIWYDGSNKYYADSVKGRFTISRDNSQNTLYLQMNSLRAEDTAVYYCTSYAIAATPGQGTLVTVSS
VL: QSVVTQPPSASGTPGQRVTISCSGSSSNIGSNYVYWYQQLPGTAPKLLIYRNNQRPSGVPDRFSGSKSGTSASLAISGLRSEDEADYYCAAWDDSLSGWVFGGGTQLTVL
B14: SC05-166 (scFv)
scFv: QVQLVQSGAEVKKPGASVKVSCKASGYTFTSYAISWVRQAPGQGLEWMGWISAYNGNTNYARKLQGRVTMTTDTSTSTAYMELRSLRSDDTAVYYCARAGLMFTAWFGELWDHGTKDNWFDPWGQGTLVTVSSGTGGSGGTGSGTGGSTNFMLTQPHSVSESPGKTVTISCTRSSGSIASYYVQWYQQRPGSSPTTVIYEDNQRPSGVPDRFSGSIDSSSNSASLTISGLKTEDEADYYCQSYDSSNQVFGGGTKLTVL
notes: Vl 150-259); also called single-chain phage antibody SC05-166

biological target: T1, bovine serum albumin (BSA) (bovine, UniProt P02769 25-607); assay: phage ELISA, BSA coated
T1 construct: Control antigen coated at 1% in PBS (pH 7.4); also called negative control antigen
Protocol: (§1) Selected single-chain phage antibodies that were obtained in the screens described above were validated in ELISA for specific enterococcal binding activity, i.e. binding to one or more enterococcal strains prepared as described supra. 2.5×10⁸ bacteria were coated overnight at 4° C. to Maxisorp™ ELISA plates in 50 μl 50 mM carbonate buffer, pH 9.6. As negative controls, the complex antigens 2% ELK and 1% BSA both in PBS (pH 7.4) were coated. Wells were washed in PBS containing 0.1% (v/v) Tween-20 and blocked with 300 μl PBS containing 2% ELK for at least 1 hour at room temperature. The selected single-chain phage antibodies were incubated for 15 minutes in an equal volume of PBS containing 2% ELK to obtain blocked phage antibodies. The plates were emptied and the blocked single-chain phage antibodies were added to the wells. Incubation was allowed to proceed for one hour at room temperature, the plates were washed in PBS containing 0.1% (v/v) Tween-20 and bound phage antibodies were detected using an anti-M13 antibody conjugated to peroxidase. Absorbance at 492 nm was measured using a spectrophotometer. As a control, the procedure was performed simultaneously without single-chain phage antibody and with a negative control single-chain phage antibody directed against West Nile virus envelope protein (SC04-374).

T1 sequence (P02769 25-607 limits assumed): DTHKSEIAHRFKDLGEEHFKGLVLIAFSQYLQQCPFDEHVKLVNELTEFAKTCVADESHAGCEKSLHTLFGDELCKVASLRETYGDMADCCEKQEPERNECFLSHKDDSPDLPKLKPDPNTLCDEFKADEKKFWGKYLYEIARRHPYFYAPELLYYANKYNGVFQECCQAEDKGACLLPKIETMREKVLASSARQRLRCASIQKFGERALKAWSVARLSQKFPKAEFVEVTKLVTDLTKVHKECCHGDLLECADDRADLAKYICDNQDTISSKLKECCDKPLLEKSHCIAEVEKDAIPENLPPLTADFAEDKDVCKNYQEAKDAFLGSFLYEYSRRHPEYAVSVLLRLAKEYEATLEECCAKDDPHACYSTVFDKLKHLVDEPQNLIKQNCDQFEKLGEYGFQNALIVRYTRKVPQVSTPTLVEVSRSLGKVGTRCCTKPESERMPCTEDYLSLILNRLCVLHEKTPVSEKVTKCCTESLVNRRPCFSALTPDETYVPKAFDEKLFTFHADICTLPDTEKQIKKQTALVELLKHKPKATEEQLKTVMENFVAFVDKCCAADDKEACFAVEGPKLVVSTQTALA

| Binder | binding result |
| --- | --- |
| B1 | no binding |
| B2 | no binding |
| B3 | no binding |
| B4 | no binding |
| B5 | no binding |
| B6 | no binding |
| B7 | no binding |
| B8 | no binding |
| B9 | no binding |
| B10 | no binding |
| B11 | no binding |
| B12 | no binding |

biological target: T1, bovine serum albumin (BSA); assay: phage ELISA, 1% BSA coated, anti-M13-HRP detection
Protocol: as §1

| Binder | OD492 nm [OD492 nm] |
| --- | --- |
| B1 | 0.042 |
| B2 | 0.044 |
| B3 | 0.073 |
| B4 | 0.043 |
| B5 | 0.047 |
| B6 | 0.048 |
| B7 | 0.049 |
| B8 | 0.044 |
| B13 | 0.046 |
| B9 | 0.052 |
| B10 | 0.058 |
| B14 | 0.104 |
| B11 | 0.043 |
| B12 | 0.044 |

Reference: patent US20090169562A1 (CRUCELL HOLLAND B V, published 2009)
